Source: paper PMC3623829

Columns and labels:
[1] = biological target: HIV-1 CA (capsid protein) M68C/E212C (HIV-1); test: cross-linking; spontaneous disulfide crosslinking of engineered cysteines in virions; viruses pelleted through 20% sucrose (100,000 x g, 30 min), dissolved in SDS sample buffer without beta-mercaptoethanol, 95°C 5 min, SDS-PAGE, immunoblot with rabbit polyclonal anti-CA antibody
[2] = biological target: HIV-1 CA (capsid protein) Q63C/Y169C (HIV-1); test: as above

Substance | stoichiometry N [1] | stoichiometry N [2]
HIV-1 CA (capsid protein) M68C/E212C (natural protein) | 6 | 
HIV-1 CA (capsid protein) Q63C/Y169C (natural protein) |  | 6
